Assay results from IntAct's records for PubMed 35512704.

B1: Speckle-type POZ protein (Homo sapiens), O43791 (parent)
chain: MSRVPSPPPPAEMSSGPVAESWCYTQIKVVKFSYMWTINNFSFCREEMGEVIKSSTFSSGANDKLKWCLRVNPKGLDEESKDYLSLYLLLVSCPKSEVRAKFKFSILNAKGEETKAMESQRAYRFVQGKDWGFKKFIRRDFLLDEANGLLPDDKLTLFCEVSVVQDSVNISGQNTMNMVKVPECRLADELGGLWENSRFTDCCLCVAGQEFQAHKAILAARSPVFSAMFEHEMEESKKNRVEINDVEPEVFKEMMCFIYTGKAPNLDKMADDLLAAADKYALERLKVMCEDALCSNLSVENAAEILILADLHSADQLKTQAVDFINYHASDVLETSGWKSMVVSHPHLVAEAYRSLASAQCPFLGPPRKRLKQS
partner: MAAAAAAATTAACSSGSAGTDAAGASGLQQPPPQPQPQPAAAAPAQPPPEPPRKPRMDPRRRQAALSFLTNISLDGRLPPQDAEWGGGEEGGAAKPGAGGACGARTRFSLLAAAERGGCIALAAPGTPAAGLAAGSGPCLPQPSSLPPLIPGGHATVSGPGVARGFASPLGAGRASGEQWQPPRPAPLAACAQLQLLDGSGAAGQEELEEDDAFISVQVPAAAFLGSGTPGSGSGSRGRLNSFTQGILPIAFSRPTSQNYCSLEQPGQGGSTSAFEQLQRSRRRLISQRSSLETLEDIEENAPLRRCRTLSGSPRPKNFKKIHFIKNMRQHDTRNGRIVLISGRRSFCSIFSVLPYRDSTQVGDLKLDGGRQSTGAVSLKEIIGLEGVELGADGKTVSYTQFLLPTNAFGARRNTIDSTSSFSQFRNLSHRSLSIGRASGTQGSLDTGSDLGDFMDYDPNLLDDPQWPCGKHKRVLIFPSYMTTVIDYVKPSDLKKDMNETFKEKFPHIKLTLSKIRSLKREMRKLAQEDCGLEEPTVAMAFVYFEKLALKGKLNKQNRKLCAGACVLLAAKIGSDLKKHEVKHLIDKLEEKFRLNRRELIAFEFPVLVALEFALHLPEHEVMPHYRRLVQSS
B2: Speckle-type POZ protein (Homo sapiens), O43791 (parent)
chain: B1 chain
partner: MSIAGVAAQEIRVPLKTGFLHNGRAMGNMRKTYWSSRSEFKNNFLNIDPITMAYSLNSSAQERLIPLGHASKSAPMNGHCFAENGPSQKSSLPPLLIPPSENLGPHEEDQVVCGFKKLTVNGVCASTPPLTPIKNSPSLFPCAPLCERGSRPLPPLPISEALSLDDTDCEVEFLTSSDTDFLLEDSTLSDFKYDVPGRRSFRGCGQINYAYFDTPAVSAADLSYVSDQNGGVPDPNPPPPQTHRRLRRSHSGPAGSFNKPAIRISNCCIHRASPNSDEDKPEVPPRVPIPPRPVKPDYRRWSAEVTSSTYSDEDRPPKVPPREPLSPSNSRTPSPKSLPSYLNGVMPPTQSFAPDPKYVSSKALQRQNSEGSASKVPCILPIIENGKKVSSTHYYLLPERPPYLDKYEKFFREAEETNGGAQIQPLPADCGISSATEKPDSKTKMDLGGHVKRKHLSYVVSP
B3: Speckle-type POZ protein (Homo sapiens), O43791 (parent)
chain: B1 chain
partner: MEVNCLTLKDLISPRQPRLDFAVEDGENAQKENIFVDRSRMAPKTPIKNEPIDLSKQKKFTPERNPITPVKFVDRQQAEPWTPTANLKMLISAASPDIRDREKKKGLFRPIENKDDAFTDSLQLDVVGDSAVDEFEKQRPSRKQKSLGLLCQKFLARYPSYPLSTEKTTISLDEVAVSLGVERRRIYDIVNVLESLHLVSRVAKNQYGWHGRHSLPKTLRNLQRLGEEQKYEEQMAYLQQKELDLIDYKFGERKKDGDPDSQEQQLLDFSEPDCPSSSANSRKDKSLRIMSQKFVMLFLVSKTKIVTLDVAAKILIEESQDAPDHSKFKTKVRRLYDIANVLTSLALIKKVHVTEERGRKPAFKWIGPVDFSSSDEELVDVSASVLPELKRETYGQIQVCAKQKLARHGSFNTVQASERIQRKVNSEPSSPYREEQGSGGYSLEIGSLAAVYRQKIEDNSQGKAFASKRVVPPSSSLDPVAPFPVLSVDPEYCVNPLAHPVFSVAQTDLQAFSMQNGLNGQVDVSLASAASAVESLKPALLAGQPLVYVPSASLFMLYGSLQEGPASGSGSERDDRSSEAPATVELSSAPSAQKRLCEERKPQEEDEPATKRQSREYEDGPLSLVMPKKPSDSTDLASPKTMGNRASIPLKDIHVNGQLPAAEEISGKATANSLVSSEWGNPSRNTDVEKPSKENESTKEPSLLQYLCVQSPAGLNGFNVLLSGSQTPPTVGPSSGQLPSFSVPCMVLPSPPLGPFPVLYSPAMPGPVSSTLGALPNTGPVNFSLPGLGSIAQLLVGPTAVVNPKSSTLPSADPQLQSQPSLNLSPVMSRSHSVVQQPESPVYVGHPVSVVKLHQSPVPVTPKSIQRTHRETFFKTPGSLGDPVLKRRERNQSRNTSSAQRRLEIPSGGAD
B4: Speckle-type POZ protein (Homo sapiens), O43791 (parent)
chain: B1 chain
partner: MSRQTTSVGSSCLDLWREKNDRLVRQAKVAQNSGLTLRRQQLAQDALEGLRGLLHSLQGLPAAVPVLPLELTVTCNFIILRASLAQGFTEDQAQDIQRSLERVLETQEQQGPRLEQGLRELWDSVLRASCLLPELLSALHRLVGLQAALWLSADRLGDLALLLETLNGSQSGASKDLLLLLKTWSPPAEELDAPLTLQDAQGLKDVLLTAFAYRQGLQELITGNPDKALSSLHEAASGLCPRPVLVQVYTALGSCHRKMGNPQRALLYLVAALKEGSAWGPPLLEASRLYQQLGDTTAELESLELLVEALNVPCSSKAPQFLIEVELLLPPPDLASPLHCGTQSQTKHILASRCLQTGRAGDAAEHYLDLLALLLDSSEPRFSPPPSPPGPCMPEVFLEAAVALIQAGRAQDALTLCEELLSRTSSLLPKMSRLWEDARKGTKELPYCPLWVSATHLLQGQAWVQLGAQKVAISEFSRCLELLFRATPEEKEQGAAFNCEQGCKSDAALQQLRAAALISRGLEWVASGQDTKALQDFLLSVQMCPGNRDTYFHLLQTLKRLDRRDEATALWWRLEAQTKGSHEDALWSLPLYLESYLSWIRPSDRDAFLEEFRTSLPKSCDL

Variants of: B1
Conditions: with cabl1_human CABLES1, Q8TDN4

effect of a mutation on the interaction | Variant
with no effect | F102C

Variants of: B2
Conditions: with errfi_human ERRFI1, Q9UJM3

effect of a mutation on the interaction | Variant
with no effect | F102C

Variants of: B2
Conditions: with errfi_human ERRFI1, Q9UJM3
Remark: another data set of the same source

effect of a mutation on the interaction | Variant
with no effect | F133V

Variants of: B2
Conditions: with errfi_human ERRFI1, Q9UJM3
Remark: another data set of the same source

effect of a mutation on the interaction | Variant
with no effect | F133L

Variants of: B2
Conditions: with errfi_human ERRFI1, Q9UJM3
Remark: another data set of the same source

effect of a mutation on the interaction | Variant
with no effect | Y87C

Variants of: B3
Conditions: with e2f7_human E2F7, Q96AV8

effect of a mutation on the interaction | Variant
with no effect | F102C

Variants of: B3
Conditions: with e2f7_human E2F7, Q96AV8
Remark: another data set of the same source

effect of a mutation on the interaction | Variant
with no effect | F133L

Variants of: B3
Conditions: with e2f7_human E2F7, Q96AV8
Remark: another data set of the same source

effect of a mutation on the interaction | Variant
with no effect | F133V

Variants of: B3
Conditions: with e2f7_human E2F7, Q96AV8
Remark: another data set of the same source

effect of a mutation on the interaction | Variant
with no effect | Y87C

Variants of: B4
Conditions: with fancg_human FANCG

effect of a mutation on the interaction | Variant
with no effect | F133V

Variants of: B4
Conditions: with fancg_human FANCG
Remark: another data set of the same source

effect of a mutation on the interaction | Variant
with no effect | F133L

Variants of: B4
Conditions: with fancg_human FANCG
Remark: another data set of the same source

effect of a mutation on the interaction | Variant
with no effect | Y87C
